Data published in doi:10.1101/2024.05.23.595491 (bioRxiv, 2024).

T1: SH3BP2-FLAG (full-length) (mouse, UniProt Q06649 1-559)
T1 sequence: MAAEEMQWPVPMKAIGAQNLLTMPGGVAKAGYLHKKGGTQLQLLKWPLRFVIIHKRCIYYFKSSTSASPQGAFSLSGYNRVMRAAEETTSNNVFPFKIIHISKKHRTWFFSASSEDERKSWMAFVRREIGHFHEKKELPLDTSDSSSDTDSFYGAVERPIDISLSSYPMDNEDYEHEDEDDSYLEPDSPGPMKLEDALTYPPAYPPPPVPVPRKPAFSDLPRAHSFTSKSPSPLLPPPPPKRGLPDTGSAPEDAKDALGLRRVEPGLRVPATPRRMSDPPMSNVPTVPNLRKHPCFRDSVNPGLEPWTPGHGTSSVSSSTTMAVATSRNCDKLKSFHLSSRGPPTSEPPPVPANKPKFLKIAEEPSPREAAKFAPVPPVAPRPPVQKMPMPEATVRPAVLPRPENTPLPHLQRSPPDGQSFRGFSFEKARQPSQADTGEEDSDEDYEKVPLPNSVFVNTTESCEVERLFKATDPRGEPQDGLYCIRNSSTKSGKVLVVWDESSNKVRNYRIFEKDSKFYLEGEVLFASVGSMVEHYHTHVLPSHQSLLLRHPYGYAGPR

B1: GST-cytAChRα (domain or fragment)
chain: NTHHRSPSTHIMPEWVRKVFIDTIPNIMFFSTMKRPSRDKQEKRIFTEDIDISDISGKPGPPPMGFHSPLIKHPEVKSAIEGVKYIAETMKSDQESNNAAEEWKYVAMVMDH
B2: GST-cytAChRα-mCherry (domain or fragment)
chain: B1 chain
B3: GST-mGFP-SH3BP2-FLAG (natural protein)
chain: T1 sequence

Tests used:
[1] = target: T1, SH3BP2-FLAG (full-length); assay: co-IP
[2] = target: B3; assay: recruitment into protein droplets
[3] = target: the molecule itself; assay: sedimentation assay

Binder: B1
binding result [1]: binds

Binder: B2
binding result [2]: binds

Binder: B3
binding result [3]: binds
